{"source": "the supplement of paper PMC10567573", "parents": {"B1": {"name": "CLK3 (parent)", "chain": "FGEDYYGPSRSRHRRRSRERGPYR"}}}
{"variants_of": "B1", "assay": "protein stability index of a GFP-peptide fusion (GPS, HEK-293T) (PSI 1-6); higher = more stable", "details": "c terminus: a fixed tail appended"}
{"variant": "AGEDYYGPSRSRHRRRSRERGPYR", "note": "[F1A]", "protein stability index": 4.83}
{"variant": "CGEDYYGPSRSRHRRRSRERGPYR", "note": "[F1C]", "protein stability index": 4.54}
{"variant": "DGEDYYGPSRSRHRRRSRERGPYR", "note": "[F1D]", "protein stability index": 5.21}
{"variant": "EGEDYYGPSRSRHRRRSRERGPYR", "note": "[F1E]", "protein stability index": 5.1}
{"variant": "GGEDYYGPSRSRHRRRSRERGPYR", "note": "[F1G]", "protein stability index": 4.79}
{"variant": "HGEDYYGPSRSRHRRRSRERGPYR", "note": "[F1H]", "protein stability index": 4.65}
{"variant": "IGEDYYGPSRSRHRRRSRERGPYR", "note": "[F1I]", "protein stability index": 4.57}
{"variant": "KGEDYYGPSRSRHRRRSRERGPYR", "note": "[F1K]", "protein stability index": 4.99}
{"variant": "LGEDYYGPSRSRHRRRSRERGPYR", "note": "[F1L]", "protein stability index": 4.08}
{"variant": "MGEDYYGPSRSRHRRRSRERGPYR", "note": "[F1M]", "protein stability index": 4.92}
{"variant": "NGEDYYGPSRSRHRRRSRERGPYR", "note": "[F1N]", "protein stability index": 4.44}
{"variant": "PGEDYYGPSRSRHRRRSRERGPYR", "note": "[F1P]", "protein stability index": 4.87}
{"variant": "QGEDYYGPSRSRHRRRSRERGPYR", "note": "[F1Q]", "protein stability index": 5.13}
{"variant": "RGEDYYGPSRSRHRRRSRERGPYR", "note": "[F1R]", "protein stability index": 5.35}
{"variant": "SGEDYYGPSRSRHRRRSRERGPYR", "note": "[F1S]", "protein stability index": 5.1}
{"variant": "TGEDYYGPSRSRHRRRSRERGPYR", "note": "[F1T]", "protein stability index": 5.16}
{"variant": "VGEDYYGPSRSRHRRRSRERGPYR", "note": "[F1V]", "protein stability index": 5.33}
{"variant": "WGEDYYGPSRSRHRRRSRERGPYR", "note": "[F1W]", "protein stability index": 4.57}
{"variant": "YGEDYYGPSRSRHRRRSRERGPYR", "note": "[F1Y]", "protein stability index": 3.36}
{"variant": "FAEDYYGPSRSRHRRRSRERGPYR", "note": "[G2A]", "protein stability index": 2.87}
{"variant": "FCEDYYGPSRSRHRRRSRERGPYR", "note": "[G2C]", "protein stability index": 2.52}
{"variant": "FDEDYYGPSRSRHRRRSRERGPYR", "note": "[G2D]", "protein stability index": 5.06}
{"variant": "FEEDYYGPSRSRHRRRSRERGPYR", "note": "[G2E]", "protein stability index": 4.89}
{"variant": "FFEDYYGPSRSRHRRRSRERGPYR", "note": "[G2F]", "protein stability index": 3.98}
{"variant": "FHEDYYGPSRSRHRRRSRERGPYR", "note": "[G2H]", "protein stability index": 2.5}
{"variant": "FIEDYYGPSRSRHRRRSRERGPYR", "note": "[G2I]", "protein stability index": 1.99}
{"variant": "FKEDYYGPSRSRHRRRSRERGPYR", "note": "[G2K]", "protein stability index": 4.75}
{"variant": "FLEDYYGPSRSRHRRRSRERGPYR", "note": "[G2L]", "protein stability index": 3.38}
{"variant": "FMEDYYGPSRSRHRRRSRERGPYR", "note": "[G2M]", "protein stability index": 3.85}
{"variant": "FNEDYYGPSRSRHRRRSRERGPYR", "note": "[G2N]", "protein stability index": 4.4}
{"variant": "FPEDYYGPSRSRHRRRSRERGPYR", "note": "[G2P]", "protein stability index": 3.52}
{"variant": "FQEDYYGPSRSRHRRRSRERGPYR", "note": "[G2Q]", "protein stability index": 2.49}
{"variant": "FREDYYGPSRSRHRRRSRERGPYR", "note": "[G2R]", "protein stability index": 4.89}
{"variant": "FSEDYYGPSRSRHRRRSRERGPYR", "note": "[G2S]", "protein stability index": 2.96}
{"variant": "FTEDYYGPSRSRHRRRSRERGPYR", "note": "[G2T]", "protein stability index": 2.65}
{"variant": "FVEDYYGPSRSRHRRRSRERGPYR", "note": "[G2V]", "protein stability index": 1.03}
{"variant": "FWEDYYGPSRSRHRRRSRERGPYR", "note": "[G2W]", "protein stability index": 4.3}
{"variant": "FYEDYYGPSRSRHRRRSRERGPYR", "note": "[G2Y]", "protein stability index": 4.01}
{"variant": "FGADYYGPSRSRHRRRSRERGPYR", "note": "[E3A]", "protein stability index": 3.9}
{"variant": "FGCDYYGPSRSRHRRRSRERGPYR", "note": "[E3C]", "protein stability index": 3.26}
{"variant": "FGDDYYGPSRSRHRRRSRERGPYR", "note": "[E3D]", "protein stability index": 2.86}
{"variant": "FGFDYYGPSRSRHRRRSRERGPYR", "note": "[E3F]", "protein stability index": 4.87}
{"variant": "FGGDYYGPSRSRHRRRSRERGPYR", "note": "[E3G]", "protein stability index": 2.27}
{"variant": "FGHDYYGPSRSRHRRRSRERGPYR", "note": "[E3H]", "protein stability index": 4.21}
{"variant": "FGIDYYGPSRSRHRRRSRERGPYR", "note": "[E3I]", "protein stability index": 4.08}
{"variant": "FGKDYYGPSRSRHRRRSRERGPYR", "note": "[E3K]", "protein stability index": 3.96}
{"variant": "FGLDYYGPSRSRHRRRSRERGPYR", "note": "[E3L]", "protein stability index": 4.43}
{"variant": "FGMDYYGPSRSRHRRRSRERGPYR", "note": "[E3M]", "protein stability index": 3.83}
{"variant": "FGNDYYGPSRSRHRRRSRERGPYR", "note": "[E3N]", "protein stability index": 3.63}
{"variant": "FGPDYYGPSRSRHRRRSRERGPYR", "note": "[E3P]", "protein stability index": 3.41}
{"variant": "FGQDYYGPSRSRHRRRSRERGPYR", "note": "[E3Q]", "protein stability index": 4.38}
{"variant": "FGRDYYGPSRSRHRRRSRERGPYR", "note": "[E3R]", "protein stability index": 3.46}
{"variant": "FGSDYYGPSRSRHRRRSRERGPYR", "note": "[E3S]", "protein stability index": 1.73}
{"variant": "FGTDYYGPSRSRHRRRSRERGPYR", "note": "[E3T]", "protein stability index": 3.75}
{"variant": "FGVDYYGPSRSRHRRRSRERGPYR", "note": "[E3V]", "protein stability index": 4.08}
{"variant": "FGWDYYGPSRSRHRRRSRERGPYR", "note": "[E3W]", "protein stability index": 3.63}
{"variant": "FGYDYYGPSRSRHRRRSRERGPYR", "note": "[E3Y]", "protein stability index": 4.08}
{"variant": "FGEAYYGPSRSRHRRRSRERGPYR", "note": "[D4A]", "protein stability index": 3.2}
{"variant": "FGECYYGPSRSRHRRRSRERGPYR", "note": "[D4C]", "protein stability index": 2.81}
{"variant": "FGEEYYGPSRSRHRRRSRERGPYR", "note": "[D4E]", "protein stability index": 3.79}
{"variant": "FGEFYYGPSRSRHRRRSRERGPYR", "note": "[D4F]", "protein stability index": 3.2}
{"variant": "FGEGYYGPSRSRHRRRSRERGPYR", "note": "[D4G]", "protein stability index": 1.9}
{"variant": "FGEHYYGPSRSRHRRRSRERGPYR", "note": "[D4H]", "protein stability index": 3.52}
{"variant": "FGEIYYGPSRSRHRRRSRERGPYR", "note": "[D4I]", "protein stability index": 3.86}
{"variant": "FGEKYYGPSRSRHRRRSRERGPYR", "note": "[D4K]", "protein stability index": 3.44}
{"variant": "FGELYYGPSRSRHRRRSRERGPYR", "note": "[D4L]", "protein stability index": 2.5}
{"variant": "FGEMYYGPSRSRHRRRSRERGPYR", "note": "[D4M]", "protein stability index": 2.29}
{"variant": "FGENYYGPSRSRHRRRSRERGPYR", "note": "[D4N]", "protein stability index": 2.1}
{"variant": "FGEPYYGPSRSRHRRRSRERGPYR", "note": "[D4P]", "protein stability index": 3.59}
{"variant": "FGEQYYGPSRSRHRRRSRERGPYR", "note": "[D4Q]", "protein stability index": 2.55}
{"variant": "FGERYYGPSRSRHRRRSRERGPYR", "note": "[D4R]", "protein stability index": 3.34}
{"variant": "FGESYYGPSRSRHRRRSRERGPYR", "note": "[D4S]", "protein stability index": 2.21}
{"variant": "FGETYYGPSRSRHRRRSRERGPYR", "note": "[D4T]", "protein stability index": 3.38}
{"variant": "FGEVYYGPSRSRHRRRSRERGPYR", "note": "[D4V]", "protein stability index": 3.58}
{"variant": "FGEWYYGPSRSRHRRRSRERGPYR", "note": "[D4W]", "protein stability index": 2.16}
{"variant": "FGEYYYGPSRSRHRRRSRERGPYR", "note": "[D4Y]", "protein stability index": 3.63}
{"variant": "FGEDAYGPSRSRHRRRSRERGPYR", "note": "[Y5A]", "protein stability index": 3.53}
{"variant": "FGEDCYGPSRSRHRRRSRERGPYR", "note": "[Y5C]", "protein stability index": 4.48}
{"variant": "FGEDDYGPSRSRHRRRSRERGPYR", "note": "[Y5D]", "protein stability index": 4.95}
{"variant": "FGEDEYGPSRSRHRRRSRERGPYR", "note": "[Y5E]", "protein stability index": 4.86}
{"variant": "FGEDFYGPSRSRHRRRSRERGPYR", "note": "[Y5F]", "protein stability index": 3.11}
{"variant": "FGEDGYGPSRSRHRRRSRERGPYR", "note": "[Y5G]", "protein stability index": 4}
{"variant": "FGEDHYGPSRSRHRRRSRERGPYR", "note": "[Y5H]", "protein stability index": 4.64}
{"variant": "FGEDIYGPSRSRHRRRSRERGPYR", "note": "[Y5I]", "protein stability index": 4.44}
{"variant": "FGEDKYGPSRSRHRRRSRERGPYR", "note": "[Y5K]", "protein stability index": 5.11}
{"variant": "FGEDLYGPSRSRHRRRSRERGPYR", "note": "[Y5L]", "protein stability index": 4.47}
{"variant": "FGEDMYGPSRSRHRRRSRERGPYR", "note": "[Y5M]", "protein stability index": 3.5}
{"variant": "FGEDNYGPSRSRHRRRSRERGPYR", "note": "[Y5N]", "protein stability index": 4.51}
{"variant": "FGEDPYGPSRSRHRRRSRERGPYR", "note": "[Y5P]", "protein stability index": 4.3}
{"variant": "FGEDQYGPSRSRHRRRSRERGPYR", "note": "[Y5Q]", "protein stability index": 4.7}
{"variant": "FGEDRYGPSRSRHRRRSRERGPYR", "note": "[Y5R]", "protein stability index": 5.21}
{"variant": "FGEDSYGPSRSRHRRRSRERGPYR", "note": "[Y5S]", "protein stability index": 3.8}
{"variant": "FGEDTYGPSRSRHRRRSRERGPYR", "note": "[Y5T]", "protein stability index": 5.24}
{"variant": "FGEDVYGPSRSRHRRRSRERGPYR", "note": "[Y5V]", "protein stability index": 4.36}
